No end group written: not given here. *: point of attachment. Biotin = O=C1N[C@H]2[C@H](CS[C@H]2CCCCC(=O)*)N1
Assays:
asyn_113-127_119A [1] = target: T1, asyn_113-127_119A (human); assay: Ala-scan peptide ELISA, row G, run 1
T1 construct: substitution is already in the entry; also called pep8
T1 peptide: Biotin-LEDMPVAPDNEAYEM

asyn_113-127_114A [2] = target: T2, asyn_113-127_114A (human); assay: Ala-scan peptide ELISA, row G, run 1
T2 construct: substitution is already in the entry; also called pep3
T2 peptide: Biotin-LADMPVDPDNEAYEM

asyn_113-127_117A [3] = target: T3, asyn_113-127_117A (human); assay: Ala-scan peptide ELISA, row G, run 1
T3 construct: substitution is already in the entry; also called pep6
T3 peptide: Biotin-LEDMAVDPDNEAYEM

asyn_113-127_122A [4] = target: T4, asyn_113-127_122A (human); assay: Ala-scan peptide ELISA, row G, run 1
T4 construct: substitution is already in the entry; also called pep11
T4 peptide: Biotin-LEDMPVDPDAEAYEM

[5] = target: T5, biotinylated human alpha-synuclein (human, UniProt P37840 1-140); assay: Ala-scan peptide ELISA, row G, run 1
asyn_113-127_120A [6] = target: T6, asyn_113-127_120A (human); assay: Ala-scan peptide ELISA, row G, run 1
T6 construct: substitution is already in the entry; also called pep9
T6 peptide: Biotin-LEDMPVDADNEAYEM

asyn_113-127_115A = target: T7, asyn_113-127_115A (human); assay: Ala-scan peptide ELISA, row G, run 1
T7 construct: substitution is already in the entry; also called pep4
T7 peptide: Biotin-LEAMPVDPDNEAYEM

asyn_113-127 [7] = target: T8, asyn_113-127 (human); assay: Ala-scan peptide ELISA, row G, run 1
T8 construct: also called pep1
T8 peptide: Biotin-LEDMPVDPDNEAYEM

asyn_113-127_124G = target: T9, asyn_113-127_124G (human); assay: Ala-scan peptide ELISA, row G, run 1
T9 construct: substitution is already in the entry; also called pep13
T9 peptide: Biotin-LEDMPVDPDNEGYEM

asyn_113-127_113A [8] = target: T10, asyn_113-127_113A (human); assay: Ala-scan peptide ELISA, row G, run 1
T10 construct: substitution is already in the entry; also called pep2
T10 peptide: Biotin-AEDMPVDPDNEAYEM

asyn_113-127_121A [9] = target: T11, asyn_113-127_121A (human); assay: Ala-scan peptide ELISA, row G, run 1
T11 construct: substitution is already in the entry; also called pep10
T11 peptide: Biotin-LEDMPVDPANEAYEM

asyn_113-127_125A [10] = target: T12, asyn_113-127_125A (human); assay: Ala-scan peptide ELISA, row G, run 1
T12 construct: substitution is already in the entry; also called pep15
T12 peptide: Biotin-LEDMPVDPDNEAAEM

asyn_113-127_124P [11] = target: T13, asyn_113-127_124P (human); assay: Ala-scan peptide ELISA, row G, run 1
T13 construct: substitution is already in the entry; also called pep14
T13 peptide: Biotin-LEDMPVDPDNEPYEM

asyn_113-127_116A [12] = target: T14, asyn_113-127_116A (human); assay: Ala-scan peptide ELISA, row G, run 1
T14 construct: substitution is already in the entry; also called pep5
T14 peptide: Biotin-LEDAPVDPDNEAYEM

asyn_113-127_118A [13] = target: T15, asyn_113-127_118A (human); assay: Ala-scan peptide ELISA, row G, run 1
T15 construct: substitution is already in the entry; also called pep7
T15 peptide: Biotin-LEDMPADPDNEAYEM

asyn_113-127_127A = target: T16, asyn_113-127_127A (human); assay: Ala-scan peptide ELISA, row G, run 1
T16 construct: substitution is already in the entry; also called pep17
T16 peptide: Biotin-LEDMPVDPDNEAYEA

asyn_113-127_126A = target: T17, asyn_113-127_126A (human); assay: Ala-scan peptide ELISA, row G, run 1
T17 construct: substitution is already in the entry; also called pep16
T17 peptide: Biotin-LEDMPVDPDNEAYAM

asyn_113-127_123A [14] = target: T18, asyn_113-127_123A (human); assay: Ala-scan peptide ELISA, row G, run 1
T18 construct: substitution is already in the entry; also called pep12
T18 peptide: Biotin-LEDMPVDPDNAAYEM

asyn_113-127_122A [15] = target: T4, asyn_113-127_122A; assay: Ala-scan peptide ELISA, row D, run 1
asyn_113-127_113A [16] = target: T10, asyn_113-127_113A; assay: Ala-scan peptide ELISA, row D, run 1
[17] = target: human alpha-synuclein monomer (human, UniProt P37840 1-140); assay: SPR (Biacore), antibody captured, monomer injected, 1:1 fit
mouse alpha-synuclein = mouse alpha-synuclein (mouse, UniProt O55042 1-140); assay: direct ELISA on coated antigen; Table 6 titration ELISA, mouse aSyn; Bmax 0.1 (weak binding)
asyn_113-127_119A [18] = target: T1, asyn_113-127_119A; assay: Ala-scan peptide ELISA, row E, run 1
asyn_113-127_114A [19] = target: T2, asyn_113-127_114A; assay: Ala-scan peptide ELISA, row E, run 1
asyn_113-127_117A [20] = target: T3, asyn_113-127_117A; assay: Ala-scan peptide ELISA, row E, run 1
[21] = target: T5, biotinylated human alpha-synuclein; assay: Ala-scan peptide ELISA, row E, run 1
asyn_113-127_120A [22] = target: T6, asyn_113-127_120A; assay: Ala-scan peptide ELISA, row E, run 1
asyn_113-127 [23] = target: T8, asyn_113-127; assay: Ala-scan peptide ELISA, row E, run 1
asyn_113-127_113A [24] = target: T10, asyn_113-127_113A; assay: Ala-scan peptide ELISA, row E, run 1
asyn_113-127_121A [25] = target: T11, asyn_113-127_121A; assay: Ala-scan peptide ELISA, row E, run 1
asyn_113-127_125A [26] = target: T12, asyn_113-127_125A; assay: Ala-scan peptide ELISA, row E, run 1
asyn_113-127_124P [27] = target: T13, asyn_113-127_124P; assay: Ala-scan peptide ELISA, row E, run 1
asyn_113-127_116A [28] = target: T14, asyn_113-127_116A; assay: Ala-scan peptide ELISA, row E, run 1
asyn_113-127_118A [29] = target: T15, asyn_113-127_118A; assay: Ala-scan peptide ELISA, row E, run 1
asyn_113-127_123A [30] = target: T18, asyn_113-127_123A; assay: Ala-scan peptide ELISA, row E, run 1

A450 (asyn_113-127_119A [1]): 0.048 OD | A450 (asyn_113-127_114A [2]): 0.083 OD | A450 (asyn_113-127_117A [3]): 0.102 OD | A450 (asyn_113-127_122A [4]): 0.049 OD | A450 [5]: 0.141 OD | A450 (asyn_113-127_120A [6]): 0.08 OD | A450 (asyn_113-127_115A): 0.058 OD | A450 (asyn_113-127 [7]): 0.089 OD | A450 (asyn_113-127_124G): 0.099 OD | A450 (asyn_113-127_113A [8]): 0.095 OD | A450 (asyn_113-127_121A [9]): 0.091 OD | A450 (asyn_113-127_125A [10]): 0.046 OD | A450 (asyn_113-127_124P [11]): 0.044 OD | A450 (asyn_113-127_116A [12]): 0.098 OD | A450 (asyn_113-127_118A [13]): 0.107 OD | A450 (asyn_113-127_127A): 0.094 OD | A450 (asyn_113-127_126A): 0.098 OD | A450 (asyn_113-127_123A [14]): 0.093 OD | A450 (asyn_113-127_122A [15]): 0.051 OD | A450 (asyn_113-127_113A [16]): 0.422 OD | Kd [17]: 3.01 nM | EC50 (mouse alpha-synuclein): 4.3 nM | A450 (asyn_113-127_119A [18]): 0.05 OD | A450 (asyn_113-127_114A [19]): 0.273 OD | A450 (asyn_113-127_117A [20]): 0.304 OD | A450 [21]: 0.383 OD | A450 (asyn_113-127_120A [22]): 0.2 OD | A450 (asyn_113-127 [23]): 0.297 OD | A450 (asyn_113-127_113A [24]): 0.302 OD | A450 (asyn_113-127_121A [25]): 0.249 OD | A450 (asyn_113-127_125A [26]): 0.045 OD | A450 (asyn_113-127_124P [27]): 0.044 OD | A450 (asyn_113-127_116A [28]): 0.296 OD | A450 (asyn_113-127_118A [29]): 0.324 OD | A450 (asyn_113-127_123A [30]): 0.282 OD
B1: 20H4 (antibody, rat IgG2b, V domains shown)
VH: AVQLVESGGGLVQPKESLKISCAASGFTFSNAAMYWVRQAPGKGLELLARIRTKPNNYATYHADSVKGRFTISRDDSQSMVYLHMGNLKTEDTAMYYCTADMATGDYWGPGVMVTVSS
VL: DIQMTQSPPVLSVSVGDRVTLSCKASQNINKNLDWYQQKHGEAPKPLIYSTNNLQTGVPSRFSGSGSGTDYTLTISSLQPEDVATYYCYQYKSAWTFGGGTKLELR
notes: also called clone 20H4; rat 20H4

Reference: US20230074436A1 (DENALI THERAPEUTICS, published 2023)
